Results taken from FireProtDB (doi:10.1002/prot.340230110).

B1: Regulatory protein rop, P03051 (parent)
chain: MTKQEKTALNMARFIRSQTLTLLEKLNELDADEQADICESLHDHADELYRSCLARFGDDGENL

Variants of: B1
Details: Escherichia coli, pH 6, Thermal, DSC, Sodium phosphate/Sodium sulfate 10 mM/10 mM/, reversible: yes, structure 1ROP, whole UniProt chain shown

**Q.** What does the source list for L41A?
**A.** ddG of mutation (higher = less stable) (25 °C): 25.6 kJ/mol; heat capacity change of unfolding (25 °C): 1.65 kcal/mol/K; unfolding free energy (25 °C): 46.1 kJ/mol; Tm: 52.9 °C; change of melting temperature, mutant - wild type (higher = more stable): -18.1 °C; heat capacity change of unfolding: 1.65 kcal/mol/K; unfolding enthalpy (calorimetric): 335 kJ/mol; unfolding enthalpy (van 't Hoff): 388 kJ/mol

**Q.** For L41V, which “ddG of mutation (higher = less stable)” value (25 °C) is on record?
**A.** 10.6 kJ/mol

**Q.** What about the “heat capacity change of unfolding” value (25 °C) of the same variant?
**A.** 1.99 kcal/mol/K

**Q.** What about the unfolding free energy (25 °C) of the same variant?
**A.** 61.2 kJ/mol

**Q.** And the Tm?
**A.** 65.3 °C

**Q.** What about the “change of melting temperature, mutant - wild type (higher = more stable)” value of the same variant?
**A.** -5.7 °C

**Q.** And the “heat capacity change of unfolding” value?
**A.** 1.99 kcal/mol/K

**Q.** What about the “unfolding enthalpy (calorimetric)” value of the same variant?
**A.** 461 kJ/mol

**Q.** What about the “unfolding enthalpy (van 't Hoff)” value of the same variant?
**A.** 479 kJ/mol
